Experimental data taken from patent US20180111972A1 (Stanford University, published 2018).
Where two headings read alike, the source gives them in different places.

Tests used:
[1] = molecular target: T1, PDGFRβ-His (residues 1-314 of PDGFR-β with C-terminal hexahistidine tag) (human, UniProt P09619 33-314); assay: yeast surface display titration, flow cytometry
T1 construct: range 1-314; Monovalent form, expressed in FreeStyle 293-F cells; also called PDGRβ-His; PDGFR-His

[2] = molecular target: T2, VEGFR2-His (residues 1-764 of VEGFR2, Ig-like domains 1-7, with hexahistidine tag) (human, UniProt P35968 20-764); assay: yeast surface display titration, flow cytometry
T2 construct: range 1-764; Monomeric form, expressed in FreeStyle 293-F cells; also called VEGFR-His

[3] = molecular target: T1, PDGFRβ-His (residues 1-314 of PDGFR-β …); assay: yeast surface display titration, flow cytometry; remark: listed apart in the source
Protocol: (§1) Cells were incubated in large enough volumes to avoid ligand depletion and appropriate time to reach equilibrium. During the last hour of incubation, yeast were incubated with 1:250 dilution of chicken anti-c-Myc (Invitrogen) in PBSA. […] Yeast were washed, pelleted, and resuspended in PBSA immediately before analysis by flow cytometry using BD FACSCalibur or BD Accuri C6. Flow cytometry data were analyzed using FlowJo (v7.6.1 and v10, Treestar) or BD Accuri C6 software. Statistical analysis was performed using GraphPad Prism 6.

[4] = molecular target: T2, VEGFR2-His (residues 1-764 of VEGFR2, …); assay: yeast surface display titration, flow cytometry; remark: listed apart in the source
Protocol: as §1

[5] = molecular target: T3, soluble PDGFRβ (Fc or His format not stated for the experiment) (human, UniProt P09619 33-532); assay: binding titration (FIG. 12); taken as yeast display, receptor format not stated; to PDGFR; receptor format not stated
T3 construct: extracellular domain

[6] = molecular target: T1, PDGFRβ-His (residues 1-314 of PDGFR-β …); assay: yeast surface display titration, flow cytometry; remark: listed apart in the source
Protocol: as §1

[7] = molecular target: T2, VEGFR2-His (residues 1-764 of VEGFR2, …); assay: yeast surface display titration, flow cytometry; remark: listed apart in the source
Protocol: as §1

[8] = molecular target: T2, VEGFR2-His (residues 1-764 of VEGFR2, …); assay: yeast surface display, flow cytometry equilibrium titration of VEGFR2-His, normalized fluorescence
Protocol: as §1

[9] = molecular target: T1, PDGFRβ-His (residues 1-314 of PDGFR-β …); assay: yeast surface display, flow cytometry equilibrium titration of PDGFRβ-His (panel 'PDGFR-His'), normalized fluorescence
Protocol: as §1

[10] = molecular target: T4, soluble VEGFR2 (Fc or His format not stated for the experiment) (human, UniProt P35968 20-764); assay: binding titration (FIG. 12); taken as yeast display, receptor format not stated; to VEGFR; receptor format not stated
T4 construct: extracellular domain

[11] = molecular target: T3, soluble PDGFRβ (Fc or His format not …); assay: yeast surface display, flow cytometry titration of soluble receptor; panel 'PDGFR binding', Fc or His form not given
[12] = molecular target: T1, PDGFRβ-His (residues 1-314 of PDGFR-β …); assay: yeast surface display, flow cytometry titration of PDGFRβ-His (panel 'PDGFRβ binding')
Protocol: as §1

[13] = molecular target: T5, PDGFRβ-Fc (residues 1-314 of PDGFR-β fused to the Fc region of mouse IgG2a) (human; mouse, UniProt P09619 33-314); assay: yeast surface display titration; PDGF taken as yeast-displayed scPDGF
T5 construct: range 1-314; Expressed in FreeStyle 293-F cells; also called PDGRβ-Fc; PDGFR-Fc; not shown: Fc region of mouse IgG2a

[14] = molecular target: T5, PDGFRβ-Fc (residues 1-314 of PDGFR-β …); assay: titration on yeast-displayed scPDGF, flow cytometry, anti-mouse-Fc
Protocol: as §1
(§2) Bound protein was detected using fluorescently-labeled anti-His and anti-mouse-Fc antibodies.

[15] = molecular target: T1, PDGFRβ-His (residues 1-314 of PDGFR-β …); assay: titration on yeast-displayed scPDGF, flow cytometry, anti-His
Protocol: as §1, §2

T1 sequence (P09619 other isoform, or with tags, fused parts or gaps limits assumed, form in doubt): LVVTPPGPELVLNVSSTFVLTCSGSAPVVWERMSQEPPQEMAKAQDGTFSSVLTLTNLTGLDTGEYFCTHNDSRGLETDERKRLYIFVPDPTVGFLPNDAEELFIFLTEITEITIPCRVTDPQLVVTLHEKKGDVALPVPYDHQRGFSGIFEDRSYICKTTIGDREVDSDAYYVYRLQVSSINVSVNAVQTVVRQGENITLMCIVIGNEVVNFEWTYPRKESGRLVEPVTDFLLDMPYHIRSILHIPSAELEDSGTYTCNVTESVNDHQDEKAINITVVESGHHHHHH
T2 sequence (P35968 other isoform, or with tags, fused parts or gaps limits assumed, form in doubt): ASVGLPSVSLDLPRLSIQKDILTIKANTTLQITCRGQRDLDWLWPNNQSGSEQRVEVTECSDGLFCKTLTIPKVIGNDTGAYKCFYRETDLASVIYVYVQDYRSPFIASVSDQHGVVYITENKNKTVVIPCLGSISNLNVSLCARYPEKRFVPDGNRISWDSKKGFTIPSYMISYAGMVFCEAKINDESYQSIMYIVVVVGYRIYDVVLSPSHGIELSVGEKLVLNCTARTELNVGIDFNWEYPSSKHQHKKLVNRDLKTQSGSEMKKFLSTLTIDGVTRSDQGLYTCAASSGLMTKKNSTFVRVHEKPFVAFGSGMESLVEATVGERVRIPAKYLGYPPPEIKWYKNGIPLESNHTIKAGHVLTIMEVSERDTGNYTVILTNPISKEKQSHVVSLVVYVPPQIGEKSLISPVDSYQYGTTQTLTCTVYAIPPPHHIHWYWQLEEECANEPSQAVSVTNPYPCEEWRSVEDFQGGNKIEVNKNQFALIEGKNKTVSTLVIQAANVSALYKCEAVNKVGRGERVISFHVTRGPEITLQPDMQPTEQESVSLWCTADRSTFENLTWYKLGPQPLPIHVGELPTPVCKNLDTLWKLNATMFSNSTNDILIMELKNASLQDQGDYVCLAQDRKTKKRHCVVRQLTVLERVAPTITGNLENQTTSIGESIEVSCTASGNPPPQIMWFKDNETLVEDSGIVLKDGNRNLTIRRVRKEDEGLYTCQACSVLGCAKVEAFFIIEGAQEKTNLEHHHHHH
T5 sequence (P09619 33-314 limits assumed, form in doubt): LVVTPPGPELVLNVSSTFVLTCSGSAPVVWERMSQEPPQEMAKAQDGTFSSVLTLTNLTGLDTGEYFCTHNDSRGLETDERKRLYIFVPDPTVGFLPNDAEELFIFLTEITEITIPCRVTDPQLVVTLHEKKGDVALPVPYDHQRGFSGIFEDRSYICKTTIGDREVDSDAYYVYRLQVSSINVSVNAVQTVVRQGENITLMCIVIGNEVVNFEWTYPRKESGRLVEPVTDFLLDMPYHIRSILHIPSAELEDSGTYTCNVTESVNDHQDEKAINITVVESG
T3 sequence (P09619 33-532): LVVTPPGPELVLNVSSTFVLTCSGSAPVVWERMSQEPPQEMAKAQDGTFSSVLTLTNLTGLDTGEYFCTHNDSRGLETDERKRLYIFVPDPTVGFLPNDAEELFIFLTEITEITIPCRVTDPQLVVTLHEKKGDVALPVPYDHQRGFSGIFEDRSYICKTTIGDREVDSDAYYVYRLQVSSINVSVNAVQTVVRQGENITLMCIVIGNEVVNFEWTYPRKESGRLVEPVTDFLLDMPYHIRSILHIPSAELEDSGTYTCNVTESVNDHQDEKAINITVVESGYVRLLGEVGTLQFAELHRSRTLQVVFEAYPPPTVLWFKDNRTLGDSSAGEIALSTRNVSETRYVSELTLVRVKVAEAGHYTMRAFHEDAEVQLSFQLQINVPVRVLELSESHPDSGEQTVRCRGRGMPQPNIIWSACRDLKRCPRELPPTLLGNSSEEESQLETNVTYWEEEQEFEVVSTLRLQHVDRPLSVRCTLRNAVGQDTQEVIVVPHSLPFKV
T4 sequence (P35968 20-764): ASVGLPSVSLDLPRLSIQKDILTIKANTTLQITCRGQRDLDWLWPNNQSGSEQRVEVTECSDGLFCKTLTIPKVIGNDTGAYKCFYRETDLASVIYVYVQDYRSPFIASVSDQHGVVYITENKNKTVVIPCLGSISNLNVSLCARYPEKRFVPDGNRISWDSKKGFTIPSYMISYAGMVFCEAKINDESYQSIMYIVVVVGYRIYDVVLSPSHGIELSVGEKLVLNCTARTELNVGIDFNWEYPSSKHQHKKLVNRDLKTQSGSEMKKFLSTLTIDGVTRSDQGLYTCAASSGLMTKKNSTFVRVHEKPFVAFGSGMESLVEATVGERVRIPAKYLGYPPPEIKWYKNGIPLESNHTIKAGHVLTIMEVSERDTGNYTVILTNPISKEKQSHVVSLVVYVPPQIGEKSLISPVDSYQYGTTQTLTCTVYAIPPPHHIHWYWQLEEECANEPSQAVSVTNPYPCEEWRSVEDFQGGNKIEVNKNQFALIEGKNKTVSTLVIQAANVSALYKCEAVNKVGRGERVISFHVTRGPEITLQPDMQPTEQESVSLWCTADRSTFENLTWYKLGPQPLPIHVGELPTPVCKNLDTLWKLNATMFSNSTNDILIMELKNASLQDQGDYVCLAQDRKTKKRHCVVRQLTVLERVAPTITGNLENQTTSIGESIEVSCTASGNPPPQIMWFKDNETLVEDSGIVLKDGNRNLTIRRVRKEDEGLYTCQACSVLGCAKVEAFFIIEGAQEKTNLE

B1: PVAM (4-22 RF), yeast-displayed (designed binder)
chain: IAEPAMIAECHPIETLVDILQEYPDEIGYIFKPSCVPLMRCGGCCNNRNVQCRPTEESNITMQIMRIKPHRGQHIGEMSFLQHNKCRCETVAAGSTSGSGKSSEGKGEVVKFMDVYQRSYCKTRTEVFEISRRLIDRTNANFLVWPPCVEVQRCSGCCNHEGLECVPTQVQLRPVQVRKIEFVRKKPIFKKATVTLEDHLACECRPKKD
notes: Combines K87R and I182F with F20L, E28G, Q71R and D160H
fold improvement compared to PV6 [1]: 1100 fold
fold improvement compared to PV6 [2]: 200 fold
Kd [3]: 0.39 nM
Kd [4]: 1.1 nM
Kd [5]: 0.21 nM
Kd [6]: 0.39 nM
Kd [7]: 1.1 nM
EC50 (read off the curve) [8]: ~1 nM
EC50 (read off the curve) [9]: ~0.4 nM
Kd [10]: 2.1 nM
EC50 (read off the curve) [11]: ~0.2 nM
EC50 (read off the curve) [12]: ~0.3 nM

B2: scPDGF, yeast-displayed (ligand)
chain: IAEPAMIAECKTRTEVFEISRRLIDRTNANFLVWPPCVEVQRCSGCCNNRNVQCRPTQVQLRPVQVRKIEIVRKKPIFKKATVTLEDHLACKCETVAAGSTSGSGKSSEGKGIAEPAMIAECKTRTEVFEISRRLIDRTNANFLVWPPCVEVQRCSGCCNNRNVQCRPTQVQLRPVQVRKIEIVRKKPIFKKATVTLEDHLACKCETVAA
Kd [13]: ~0.04 nM
Kd [14]: 0.028 nM
Kd [15]: 310 nM
